What is called EC50 (read off the curve) is the concentration giving half of the maximal effect. High values mean lower potency in that assay, low ones higher potency in that assay. As usually defined, the EC50 is the concentration needed to bring the measured effect to its halfway point. A lower EC50 goes with an effect from little substance.

The text below walks through data of patent publication US20260184786A1 (LINDIS BIOTECH, published 2026).

For one assay, the target named is T1, CD3 on Jurkat cells (human, UniProt P07766;P09693;P04234).
T1 construct: on the surface of Jurkat cells
Description: flow cytometry on Jurkat cells, FITC-labelled secondary antibody, MFI (Example 3). The protocol:
The Jurkat cells were adjusted to a concentration of 4×10⁶ cells/ml with PBS, and the cell suspension (50 μl/well) and different concentrations of CD3 antibodies (50 μl/well) were sequentially added to a U-shaped 96-well plate and mixed evenly to achieve final antibody concentrations of […]. The cells were incubated in a 4° C. refrigerator for 1.5 h. After the incubation was completed, the plate was centrifuged (300 g, 5 min), then the supernatant was removed and the residue was washed with PBS (200 μl/well). Finally, FITC-conjugated AffiniPure Rat Anti-Mouse IgG (H+L) was added for staining, and flow cytometry was used for analysis and quantification.
On the technique in general: A flow cytometer gives signals particle by particle.

The target of assay [1] is T2, Human CD3E & CD3G (human, UniProt P07766;P09693).
T2 construct: recombinant, tag given as Lama Fc; also called CD3E & CD3G heterodimer protein; CD3E/G antigen
Description: ELISA on plate-coated CD3E & CD3G heterodimer protein (Example 2); 95% CI 25,03 to 66,53 ng/ml, R squared 0.9718. The protocol:
(§1) An ELISA plate was coated with CD3E & CD3G heterodimer protein (as shown in FIG. 3) at 100 ng/well at 4° C. overnight. The next day, the plate was blocked with a blocking solution (3% BSA in 1×PBS) for 2 h, washed with a washing solution and drained. The plate was then added with gradiently diluted humanized CD3 antibodies, and incubated at 37° C. for 1 h. The reaction solution was discarded, and the plate was washed and drained. The plate was then added with diluted detection antibody (THE™ His Tag Antibody [HRP]) at 100 μL per well and incubated at 37° C. for 1 h. The detection antibody was discarded, and the plate was washed and drained. The plate was then added with a single-component TMB color developing solution returned to room temperature at 100 μL per well, and the color development was performed at 37° C. for 10 min. After the color was developed, a stop solution was added to the plate at 100 μL per well to terminate the color development reaction. The absorbance was read at 450 nm using a microplate reader.
A general note: An ELISA detects its analyte on a solid surface through an enzyme-linked reagent.

Assay [2] deals with T2, Human CD3E & CD3G. Description: ELISA, plate coated with CD3E & CD3G heterodimer protein (100 ng/well), anti-His tag HRP detection (Example 2). Here is the method: as §1
Assay [3] addresses T2, Human CD3E & CD3G. Briefly: ELISA on plate-coated CD3E & CD3G heterodimer protein (Example 2); 95% CI 23,44 to 39,91 ng/ml, R squared 0.9911. Here is the method: as §1
The target of assay [4] is T2, Human CD3E & CD3G. Briefly: ELISA on plate-coated CD3E & CD3G heterodimer protein (Example 2); 95% CI 20,94 to 55,12 ng/ml, R squared 0.9704. Here is the method:
as §1

The target of assay [5] is T2, Human CD3E & CD3G. Description: ELISA on plate-coated CD3E & CD3G heterodimer protein (Example 2); 95% CI 8,947 to 24,24 ng/ml, R squared 0.9587. Here is the method:
as §1

T2 sequence (P07766 23-126 limits assumed, chain 1 of 2): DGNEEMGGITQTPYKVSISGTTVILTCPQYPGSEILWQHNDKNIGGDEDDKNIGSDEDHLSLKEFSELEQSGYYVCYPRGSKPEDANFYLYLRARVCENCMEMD
T2 sequence (P09693 23-116 limits assumed, chain 2 of 2): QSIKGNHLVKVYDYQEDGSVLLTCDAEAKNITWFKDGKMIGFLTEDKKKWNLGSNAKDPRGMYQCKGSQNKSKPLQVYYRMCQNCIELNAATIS
T1 sequence (P07766 23-207, chain 1 of 3): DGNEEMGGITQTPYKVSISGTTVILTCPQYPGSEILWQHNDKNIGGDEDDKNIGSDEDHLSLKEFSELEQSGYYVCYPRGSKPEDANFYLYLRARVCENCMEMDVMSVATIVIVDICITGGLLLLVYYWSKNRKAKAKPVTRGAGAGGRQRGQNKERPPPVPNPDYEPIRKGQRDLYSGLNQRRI
T1 sequence (P09693 23-182, chain 2 of 3): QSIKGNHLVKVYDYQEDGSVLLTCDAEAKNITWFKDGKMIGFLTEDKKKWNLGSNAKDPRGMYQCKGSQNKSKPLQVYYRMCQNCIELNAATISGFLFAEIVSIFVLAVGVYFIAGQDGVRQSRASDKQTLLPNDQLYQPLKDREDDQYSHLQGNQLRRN
T1 sequence (P04234 22-171, chain 3 of 3): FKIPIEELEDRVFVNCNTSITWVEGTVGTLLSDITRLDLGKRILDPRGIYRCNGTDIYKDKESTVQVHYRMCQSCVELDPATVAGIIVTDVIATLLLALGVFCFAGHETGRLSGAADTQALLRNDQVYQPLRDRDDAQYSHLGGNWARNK

B1: VH_V2_VL_V4 (antibody, V domains shown)
VH: EVQLVESGGGLVQPGRSLRLSCAASGFTFNNYWMSWVRQAPGKGLEWVSAITKTGGSTYYPDSVKGRFTISRDNSKSTLYLQMNSLRAEDTATYYCTREYYYDPYIDYWGQGVLVTVSS
VL: QFALTQPRSVSGSLGQSVTLSCTRTTGNIGSNYVNWYQQHEGKAPKTMIYRDDKRPSGVPDRFSGSIDRSSNTASLTISGVQAEDEADYYCQSYSSGINIFGGGTKLTVL
notes: also called HV2-LV4
With B1, the 50% effective concentration (EC50 (read off the curve)) with CD3 on Jurkat cells is around 0.05 µg/mL. Further, the concentration for a half-maximal effect (EC50) in the assay with Human CD3E & CD3G [1] was 0.0405 µg/mL.

B2: VH_V4_VL_V1 (antibody, V domains shown)
VH: EVQLVESGGGLVQPGGSLRLSCAASGFTFNNYWMTWIRQAPGKGLEWVASITKTGGSTYYPDSVKGRFTISRDNSKSTLYLQMNSLRAEDTAVYYCTREYYYDPYIDYWGQGTLVTVSS
VL: QSALTQPRSVSGSPGQSVTISCTGTTGNIGSNYVSWYQQHPGKAPKLMIYRDDKRPSGVPDRFSGSKSGNTASLTISGLQAEDEADYYCQSYSSGINIFGGGTKLTVL
notes: also called HV4-LV1
For B2, the binding result with Human CD3E & CD3G [2] is “no binding (tested: 10 µg/ml)”.

B3: VH_V2_VL_V2 (antibody, V domains shown)
VH: EVQLVESGGGLVQPGRSLRLSCAASGFTFNNYWMSWVRQAPGKGLEWVSAITKTGGSTYYPDSVKGRFTISRDNSKSTLYLQMNSLRAEDTATYYCTREYYYDPYIDYWGQGVLVTVSS
VL: QFALTQPRSVSGNLGSSVKISCKRTTGNIGSNYVNWYQQHEGKAPTTMIYRDDKRPDGVPDRFSGSKDRSGNTALLTINNLQTEDEADYYCQSYSSGINIFGGGTKLTVL
notes: also called HV2-LV2
B3: the binding result in the assay with Human CD3E & CD3G [2] is “no binding (tested: 10 µg/ml)”.

B4: C3002HC-LV4 (antibody, V domains shown)
VH: EVQLVESGGGLVQPGGSLRLSCAASGFTFNNYWMTWIRQAPGKGLEWVASITKTGGSTYYPDSVKGRFTISRDNAKNSLYLQMNSLRAEDTAVYYCTREYYYDPYIDYWGQGTMVTVSS
VL: QFALTQPRSVSGSLGQSVTLSCTRTTGNIGSNYVNWYQQHEGKAPKTMIYRDDKRPSGVPDRFSGSIDRSSNTASLTISGVQAEDEADYYCQSYSSGINIFGGGTKLTVL
On to B4, for which the “EC50 (read off the curve)” value with CD3 on Jurkat cells was around 0.05 µg/mL.

B5: C3002-2-HC-LV4 (antibody, V domains shown)
VH: EVQLVESGGGLVQPGGSLRLSCAASGFTFNNYWMTWIRQAPGKGLEWVASITKTGGSTYYPDSVKGRFTISRDNAKNSLYLQMNSLRAEDTATYYCTREYYYDPYIDYWGQGVMVTVSS
VL: QFALTQPRSVSGSLGQSVTLSCTRTTGNIGSNYVNWYQQHEGKAPKTMIYRDDKRPSGVPDRFSGSIDRSSNTASLTISGVQAEDEADYYCQSYSSGINIFGGGTKLTVL
In the case of B5, the concentration for a half-maximal effect (EC50 (read off the curve)) with CD3 on Jurkat cells was around 0.04 µg/mL.

B6: VH_V4_VL_V4 (antibody, V domains shown)
VH: EVQLVESGGGLVQPGGSLRLSCAASGFTFNNYWMTWIRQAPGKGLEWVASITKTGGSTYYPDSVKGRFTISRDNSKSTLYLQMNSLRAEDTAVYYCTREYYYDPYIDYWGQGTLVTVSS
VL: QFALTQPRSVSGSLGQSVTLSCTRTTGNIGSNYVNWYQQHEGKAPKTMIYRDDKRPSGVPDRFSGSIDRSSNTASLTISGVQAEDEADYYCQSYSSGINIFGGGTKLTVL
notes: also called HV4-LV4
For the molecule B6, the half-maximal effective concentration (EC50 (read off the curve)) with CD3 on Jurkat cells was around 0.04 µg/mL. In the assay with Human CD3E & CD3G [3], this molecule returned an EC50 of 0.0305 µg/mL.

B7: VH_V3_VL_V4 (antibody, V domains shown)
VH: EVQLVESGGGLVQPGRSLRLSCAASGFTFNNYWMSWVRQAPGKGLEWVASITKTGGSTYYPDSVKGRFTISRDNAKSTLYLQMNSLRSEDTATYYCTREYYYDPYIDYWGQGVLVTVSS
VL: QFALTQPRSVSGSLGQSVTLSCTRTTGNIGSNYVNWYQQHEGKAPKTMIYRDDKRPSGVPDRFSGSIDRSSNTASLTISGVQAEDEADYYCQSYSSGINIFGGGTKLTVL
notes: also called HV3-LV4
As to B7, in the assay with CD3 on Jurkat cells, the “EC50 (read off the curve)” value was around 0.04 µg/mL. Also, the half-maximal effective concentration (EC50) with Human CD3E & CD3G [4] is 0.0337 µg/mL.

B8: VH_V1_VL_V4 (antibody, V domains shown)
VH: EVQLVESGGGLVQPGGSLRLSCAASGFTFNNYWMSWVRQAPGKGLEWVSAITKTGGSTYYADSVKGRFTISRDNSKNTLYLQMNSLRAEDTAVYYCTREYYYDPYIDYWGQGTLVTVSS
VL: QFALTQPRSVSGSLGQSVTLSCTRTTGNIGSNYVNWYQQHEGKAPKTMIYRDDKRPSGVPDRFSGSIDRSSNTASLTISGVQAEDEADYYCQSYSSGINIFGGGTKLTVL
notes: also called HV1-LV4
As to B8, in the assay with CD3 on Jurkat cells, the concentration for a half-maximal effect (EC50 (read off the curve)) was around 0.04 µg/mL. Also, in the assay with Human CD3E & CD3G [5], it took 0.0148 µg/mL to reach a half-maximal effect (EC50).

B9: VH_V3_VL_V2 (antibody, V domains shown)
VH: EVQLVESGGGLVQPGRSLRLSCAASGFTFNNYWMSWVRQAPGKGLEWVASITKTGGSTYYPDSVKGRFTISRDNAKSTLYLQMNSLRSEDTATYYCTREYYYDPYIDYWGQGVLVTVSS
VL: QFALTQPRSVSGNLGSSVKISCKRTTGNIGSNYVNWYQQHEGKAPTTMIYRDDKRPDGVPDRFSGSKDRSGNTALLTINNLQTEDEADYYCQSYSSGINIFGGGTKLTVL
notes: also called HV3-LV2
Take B9: the binding result with Human CD3E & CD3G [2] was “no binding (tested: 10 µg/ml)”.

B10: VH_V3_VL_V1 (antibody, V domains shown)
VH: EVQLVESGGGLVQPGRSLRLSCAASGFTFNNYWMSWVRQAPGKGLEWVASITKTGGSTYYPDSVKGRFTISRDNAKSTLYLQMNSLRSEDTATYYCTREYYYDPYIDYWGQGVLVTVSS
VL: QSALTQPRSVSGSPGQSVTISCTGTTGNIGSNYVSWYQQHPGKAPKLMIYRDDKRPSGVPDRFSGSKSGNTASLTISGLQAEDEADYYCQSYSSGINIFGGGTKLTVL
notes: also called HV3-LV1
Take B10: the binding result with Human CD3E & CD3G [2] was “no binding (tested: 10 µg/ml)”.
